Reference: patent US11833164B2, “Methods of treating Fabry disease in patients having a mutation in the GLA gene” (Amicus Therapeutics, Inc., priority 2019, dated 2023)
Numbering of substitutions follows the chain as printed. Numbers in names are those of the source.

B1: H125N (protein)
chain: MQLRNPELHLGCALALRFLALVSWDIPGARALDNGLARTPTMGWLHWERFMCNLDCQEEPDSCISEKLFMEMAELMVSEGWKDAGYEYLCIDDCWMAPQRDSEGRLQADPQRFPHGIRQLANYVNSKGLKLGIYADVGNKTCAGFPGSFGYYDIDAQTFADWGVDLLKFDGCYCDSLENLADGYKHMSLALNRTGRSIVYSCEWPLYMWPFQKPNYTEIRQYCNHWRNFADIDDSWKSIKSILDWTSFNQERIVDVAGPGGWNDPDMLVIGNFGLSWNQQVTQMALWAIMAAPLFMSNDLRHISPQAKALLQDKDVIAINQDPLGKQGYQLRQGDNFEVWERPLSGLAWAVAMINRQEIGGPRSYTIAVASLGKGVACNPACFITQLLPVKRKLGFYEWTSRLRSHINPTGTVLLQLENTMQMSLKDLL
B2: K130M (protein)
chain: B1 chain with N125H, K130M
B3: A135G (protein)
chain: B1 chain with N125H, A135G
B4: H125R (protein)
chain: B1 chain with N125R
B5: I133V (protein)
chain: B1 chain with N125H, I133V
B6: K130N (protein)
chain: B1 chain with N125H, K130N
B7: K127E (protein)
chain: B1 chain with N125H, K127E
B8: G128A (protein)
chain: B1 chain with N125H, G128A
B9: L129V (protein)
chain: B1 chain with N125H, L129V
B10: A135S (protein)
chain: B1 chain with N125H, A135S
B11: K130Q (protein)
chain: B1 chain with N125H, K130Q
B12: A135T (protein)
chain: B1 chain with N125H, A135T
B13: S126I (protein)
chain: B1 chain with N125H, S126I
B14: I133T (protein)
chain: B1 chain with N125H, I133T
B15: S126C (protein)
chain: B1 chain with N125H, S126C
B16: L131V (protein)
chain: B1 chain with N125H, L131V
B17: I133L (protein)
chain: B1 chain with N125H, I133L
B18: A135E (protein)
chain: B1 chain with N125H, A135E

System: mutant form of α-Gal A expressed in HEK-293 cells
Test: HEK assay (GLP HEK / Migalastat Amenability Assay): α-Gal A activity in lysates of transiently transfected HEK-293 cells incubated with or without 10 μM migalastat
Type: cell-based, human
Details: for Absolute increase (% WT): 10 μM migalastat versus baseline; for Relative increase: 10 μM migalastat α-Gal A activity relative to baseline; for 10 μM migalastat α-Gal A activity (% WT): 5 days; for 10 μM migalastat α-Gal A activity (% WT) / Baseline α-Gal A activity (% WT): percentage of baseline wild-type α-Gal A activity; for 10 μM migalastat α-Gal A activity (% WT) / Baseline α-Gal A activity (% WT) / Baseline α-Gal A activity / 10 μM migalastat α-Gal A activity: mean ± SEM; for Baseline α-Gal A activity (% WT): absence of migalastat; for Baseline α-Gal A activity / 10 μM migalastat α-Gal A activity: lysates of HEK-293 cells transfected with the mutant form; for Baseline α-Gal A activity: incubated 5 days in the absence of migalastat; for 10 μM migalastat α-Gal A activity: incubated 5 days with 10 μM migalastat
Procedure, shortened: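 Activity reported as 4-MU released (nmol/mg/hr), mean±SEM, from lysates of transiently transfected HEK-293 cells expressing mutant α-Gal A, cultured with or without 10 μM migalastat.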

| Molecule | Absolute increase (% WT) | Relative increase | 10 μM migalastat α-Gal A activity (% WT) | Baseline α-Gal A activity (% WT) | Baseline α-Gal A activity [nmol/mg/h] | 10 μM migalastat α-Gal A activity [nmol/mg/h] |
| --- | --- | --- | --- | --- | --- | --- |
| B1 | 14.9 | 1.4 | 48.4 ± 2.7 | 33.5 ± 1.8 | 14162 ± 994 | 20228 ± 1240 |
| B2 | 10.9 | 1.3 | 41.4 ± 2.6 | 30.5 ± 2.1 | 12335 ± 890 | 16496 ± 921 |
| B3 | 16.1 | 1.2 | 90 ± 3.6 | 73.9 ± 3.8 | 29959 ± 2193 | 36552 ± 2309 |
| B4 | 23.0 | 1.6 | 59.1 ± 1.9 | 36 ± 1.2 | 14738 ± 699 | 24004 ± 987 |
| B5 | 21.9 | 1.2 | 118.1 ± 5.1 | 96.2 ± 3.7 | 38738 ± 1624 | 47299 ± 1885 |
| B6 | 10.1 | 1.5 | 31.5 ± 3 | 21.5 ± 1.9 | 8597 ± 678 | 12595 ± 989 |
| B7 | 6.4 | 1.2 | 32.2 ± 2.3 | 25.8 ± 1.1 | 8968 ± 519 | 11003 ± 768 |
| B8 | 5.1 | 1.2 | 25.9 ± 2.3 | 20.8 ± 2 | 8484 ± 872 | 10204 ± 703 |
| B9 | 16.4 | 1.5 | 48.1 ± 4.5 | 31.8 ± 3.3 | 12614 ± 1265 | 19488 ± 1603 |
| B10 | 12.2 | 1.3 | 57.9 ± 3.2 | 45.6 ± 2.9 | 16777 ± 897 | 21383 ± 1125 |
| B11 | 12.0 | 1.4 | 47.8 ± 3.1 | 35.8 ± 2.6 | 11880 ± 450 | 16001 ± 701 |
| B12 | 23.2 | 2.4 | 40.5 ± 3.4 | 17.4 ± 1.3 | 7906 ± 694 | 18890 ± 2092 |
| B13 | 16.0 | 1.2 | 85.9 ± 5.3 | 69.8 ± 5.1 | 28685 ± 1923 | 35340 ± 2027 |
| B14 | 15.0 | 2.4 | 25.8 ± 1.1 | 10.8 ± 1 | 4362 ± 397 | 10255 ± 335 |
| B15 | 7.5 | 1.4 | 24.5 ± 1.5 | 16.9 ± 1.1 | 7046 ± 488 | 10050 ± 554 |
| B16 | 12.7 | 1.3 | 53.2 ± 5.3 | 40.5 ± 2.8 | 18644 ± 1664 | 24913 ± 3151 |
| B17 | 17.5 | 1.3 | 78.2 ± 3.1 | 60.7 ± 2.7 | 24431 ± 1181 | 31550 ± 1420 |
| B18 | 7.4 | 1.3 | 32.5 ± 1.6 | 25.1 ± 1.5 | 10143 ± 752 | 12954 ± 678 |
